Experimental data: US20120172295A1 (INDIANA UNIVERSITY RESEARCH AND TECHNOLOGY, published 2012)
Like-named read-outs stand apart in the source and are kept apart here. Starred links: 1 amine or outer side, 2 acyl side, 3 side chain; linkers in the order of their positions; H or OH if unused. Positions of bridges follow the written chain, without caps; N, C: chain ends. Non-standard residues stand in square brackets, D forms with d. Groups on a side chain read outwards from the residue. Primed or numbered codes have the meaning given here. No end group written: not given here. *: point of attachment. PEG 40 kDa = 40 kDa polyethylene glycol attached to Cys; PEG 40 kDa″ = 40 kDa polyethylene glycol; γGlu = O=C(O)[C@H](CCC(=O)[*:2])N[*:1]; Stearoyl = CCCCCCCCCCCCCCCCCC(=O)*; Palmitoyl = CCCCCCCCCCCCCCCC(=O)*; Myristoyl = CCCCCCCCCCCCCC(=O)*; Nle = CCCC[C@H](N)C(=O)O; Octanoyl = CCCCCCCC(=O)*; Orn = NCCC[C@H](N)C(=O)O; Aib = CC(C)(N)C(=O)O

Columns and labels:
Assay in all cases: cell-based or functional assay
GLP-1 receptor [1] = molecular target: T1, GLP-1 receptor (UniProt P43220 24-463, limits assumed)
GLP-1 receptor [2] = molecular target: T1, GLP-1 receptor; remark: listed apart in the source
glucagon receptor [3] = molecular target: T2, glucagon receptor (UniProt P47871 26-477, limits assumed)
T2 sequence (P47871 26-477 limits assumed): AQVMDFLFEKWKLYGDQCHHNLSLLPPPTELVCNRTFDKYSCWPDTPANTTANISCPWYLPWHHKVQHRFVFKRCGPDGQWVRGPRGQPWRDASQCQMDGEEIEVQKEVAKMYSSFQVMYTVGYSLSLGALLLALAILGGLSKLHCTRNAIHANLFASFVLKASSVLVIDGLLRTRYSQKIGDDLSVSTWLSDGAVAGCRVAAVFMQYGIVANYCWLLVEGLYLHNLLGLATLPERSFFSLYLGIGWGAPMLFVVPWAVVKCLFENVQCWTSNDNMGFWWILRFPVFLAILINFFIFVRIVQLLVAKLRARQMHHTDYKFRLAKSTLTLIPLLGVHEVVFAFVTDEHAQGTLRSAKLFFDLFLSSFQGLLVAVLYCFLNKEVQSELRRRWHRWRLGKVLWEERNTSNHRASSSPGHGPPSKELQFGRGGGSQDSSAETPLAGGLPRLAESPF

GLP-1 receptor [4] = molecular target: T1, GLP-1 receptor; remark: listed apart in the source
glucagon receptor [5] = molecular target: T2, glucagon receptor; remark: listed apart in the source
GLP-1 receptor [6] = molecular target: T1, GLP-1 receptor; remark: listed apart in the source
glucagon receptor [7] = molecular target: T2, glucagon receptor; remark: listed apart in the source
GLP-1 receptor [8] = molecular target: T1, GLP-1 receptor; remark: listed apart in the source
glucagon receptor [9] = molecular target: T2, glucagon receptor; remark: listed apart in the source
GLP-1 receptor [10] = molecular target: T1, GLP-1 receptor; remark: listed apart in the source
GLP-1 receptor [11] = molecular target: T1, GLP-1 receptor; remark: listed apart in the source
glucagon receptor [12] = molecular target: T2, glucagon receptor; remark: listed apart in the source
GLP-1 receptor [13] = molecular target: T1, GLP-1 receptor; remark: listed apart in the source
glucagon receptor [14] = molecular target: T2, glucagon receptor; remark: listed apart in the source
glucagon receptor [15] = molecular target: T2, glucagon receptor; remark: listed apart in the source
glucagon receptor [16] = molecular target: T2, glucagon receptor; remark: listed apart in the source
GLP-1 receptor [17] = molecular target: T1, GLP-1 receptor; remark: listed apart in the source
GIP receptor [18] = molecular target: T3, GIP receptor (UniProt P48546 22-466)
T3 sequence (looked up): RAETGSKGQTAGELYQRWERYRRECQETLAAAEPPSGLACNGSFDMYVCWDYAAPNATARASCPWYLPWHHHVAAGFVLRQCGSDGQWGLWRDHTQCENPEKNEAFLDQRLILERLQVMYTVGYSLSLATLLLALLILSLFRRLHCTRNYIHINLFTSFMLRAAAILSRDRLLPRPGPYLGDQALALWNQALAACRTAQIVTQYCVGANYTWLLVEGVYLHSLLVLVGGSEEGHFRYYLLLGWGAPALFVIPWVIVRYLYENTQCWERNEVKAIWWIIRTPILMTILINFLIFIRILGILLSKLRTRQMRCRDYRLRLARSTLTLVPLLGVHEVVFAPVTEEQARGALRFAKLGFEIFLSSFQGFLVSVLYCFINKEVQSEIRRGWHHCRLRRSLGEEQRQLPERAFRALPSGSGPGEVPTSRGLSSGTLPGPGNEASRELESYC

glucagon receptor [19] = molecular target: T2, glucagon receptor; remark: listed apart in the source
GLP-1 receptor [20] = molecular target: T1, GLP-1 receptor; remark: listed apart in the source
GIP receptor [21] = molecular target: T3, GIP receptor; remark: listed apart in the source
glucagon receptor [22] = molecular target: T2, glucagon receptor; remark: listed apart in the source
GLP-1 receptor [23] = molecular target: T1, GLP-1 receptor; remark: listed apart in the source
glucagon receptor [24] = molecular target: T2, glucagon receptor; remark: listed apart in the source

H[Aib]QGTFTSDK(Palmitoyl)SKYLDEQAAKEFIC(PEG 40 kDa)WLMNT-NH2 [C16 acylated Glucagon analog peptide (SEQ ID NO: 536)]
EC50 (GLP-1 receptor [1]): 0.0127 nM | EC50 (GLP-1 receptor [2]): 0.033 nM | EC50 (glucagon receptor [3]): 17.4 nM | EC50 (GLP-1 receptor [4]): 0.05 nM

B1: Peptide 79** (SEQ ID NO: 620) (peptide)
peptide: H[Aib]QGTFTSDK([Ala-Ala-Palmitoyl])SKYLD[Aib]RRAQDFVCWLMNT-NH2
modifications: N-terminus assumed
SMILES: CCCCCCCCCCCCCCCC(=O)N[C@@H](C)C(=O)N[C@@H](C)C(=O)NCCCC[C@H](NC(=O)[C@H](CC(=O)O)NC(=O)[C@H](CO)NC(=O)[C@@H](NC(=O)[C@H](Cc1ccccc1)NC(=O)[C@@H](NC(=O)CNC(=O)[C@H](CCC(N)=O)NC(=O)C(C)(C)NC(=O)[C@@H](N)Cc1c[nH]cn1)[C@@H](C)O)[C@@H](C)O)C(=O)N[C@@H](CO)C(=O)N[C@@H](CCCCN)C(=O)N[C@@H](Cc1ccc(O)cc1)C(=O)N[C@@H](CC(C)C)C(=O)N[C@@H](CC(=O)O)C(=O)NC(C)(C)C(=O)N[C@@H](CCCNC(=N)N)C(=O)N[C@@H](CCCNC(=N)N)C(=O)N[C@@H](C)C(=O)N[C@@H](CCC(N)=O)C(=O)N[C@@H](CC(=O)O)C(=O)N[C@@H](Cc1ccccc1)C(=O)N[C@H](C(=O)N[C@@H](CS)C(=O)N[C@@H](Cc1c[nH]c2ccccc12)C(=O)N[C@@H](CC(C)C)C(=O)N[C@@H](CCSC)C(=O)N[C@@H](CC(N)=O)C(=O)N[C@H](C(N)=O)[C@@H](C)O)C(C)C
EC50 (glucagon receptor [5]): 0.01 nM | EC50 (GLP-1 receptor [6]): 0.008 nM

HSQGTFTSDK(Palmitoyl)SKYLDERRAKDFVQWLMNT-NH2 [E16 K20-glucagon-NH2 with K10-C16]
EC50 (glucagon receptor [7]): 0.4 nM | EC50 (GLP-1 receptor [8]): 0.09 nM | EC50 (glucagon receptor [9]): 0.236 nM | EC50 (GLP-1 receptor [10]): 0.125 nM

HS[Nle]GTFTSDYSKYLDERRAQDFVQWLMNT-NH2 [NLeu3, E16 Gluc-NH2]
Percent Potency Relative to Native Ligand (GLP-1 receptor [11]): 20.6%

HXQGTFTSDYSKYLDERRAKDFVQWLMNTK (d-Ser at 2; Lys 30 acylated with C14; C-terminal amide) [Peptide dS2E16K20K30-C14 Gluc Amide]
EC50 (glucagon receptor [12]): 3.53 nM | EC50 (GLP-1 receptor [13]): 0.84 nM

B2: Peptide 80** (SEQ ID NO: 619) (peptide)
peptide: H[Aib]QGTFTSDK([γGlu-γGlu-Palmitoyl])SKYLD[Aib]RRAQDFVCWLMNT-NH2
modifications: N-terminus assumed
SMILES: CCCCCCCCCCCCCCCC(=O)N[C@@H](CCC(=O)N[C@@H](CCC(=O)NCCCC[C@H](NC(=O)[C@H](CC(=O)O)NC(=O)[C@H](CO)NC(=O)[C@@H](NC(=O)[C@H](Cc1ccccc1)NC(=O)[C@@H](NC(=O)CNC(=O)[C@H](CCC(N)=O)NC(=O)C(C)(C)NC(=O)[C@@H](N)Cc1c[nH]cn1)[C@@H](C)O)[C@@H](C)O)C(=O)N[C@@H](CO)C(=O)N[C@@H](CCCCN)C(=O)N[C@@H](Cc1ccc(O)cc1)C(=O)N[C@@H](CC(C)C)C(=O)N[C@@H](CC(=O)O)C(=O)NC(C)(C)C(=O)N[C@@H](CCCNC(=N)N)C(=O)N[C@@H](CCCNC(=N)N)C(=O)N[C@@H](C)C(=O)N[C@@H](CCC(N)=O)C(=O)N[C@@H](CC(=O)O)C(=O)N[C@@H](Cc1ccccc1)C(=O)N[C@H](C(=O)N[C@@H](CS)C(=O)N[C@@H](Cc1c[nH]c2ccccc12)C(=O)N[C@@H](CC(C)C)C(=O)N[C@@H](CCSC)C(=O)N[C@@H](CC(N)=O)C(=O)N[C@H](C(N)=O)[C@@H](C)O)C(C)C)C(=O)O)C(=O)O
EC50 (glucagon receptor [5]): 0.006 nM | EC50 (GLP-1 receptor [6]): 0.008 nM

HXQGTFTSDKSKYLDERRAKDFVQWLMNT (d-Ser at 2; Lys 10 acylated with C14; C-terminal amide) [Peptide dS2K10(C14)E16K20-Gluc Amide]
EC50 (glucagon receptor [12]): 0.155 nM | EC50 (GLP-1 receptor [13]): 0.041 nM

HXQGTFTSDYSKYLDERRAKDFVQWLMNTK (d-Ser at 2; Lys 30 acylated with C16; C-terminal amide) [Peptide dS2E16K20K30-C16 Gluc Amide]
EC50 (glucagon receptor [12]): 4.89 nM | EC50 (GLP-1 receptor [13]): 3.05 nM

HSQGTFTSDK([Trp-Stearoyl])SKYLDERRAKDFVQWLMNT-NH2 [E16 K20-glucagon-NH2 with K10-W-C18]
EC50 (glucagon receptor [7]): 0.05 nM | EC50 (glucagon receptor [9]): 0.044 nM

H[Aib]QGTFTSDK(Octanoyl)SKYLDEQAAKEFIC(PEG 40 kDa)WLMNT-NH2 [C8 acylated Glucagon analog peptide (SEQ ID NO: 534)]
EC50 (GLP-1 receptor [1]): 0.0174 nM | EC50 (GLP-1 receptor [2]): 0.058 nM

H[Aib]QGTFTSDK(Myristoyl)SKYLDEQAAKEFIC(PEG 40 kDa)WLMNT-NH2 [C14 acylated Glucagon analog peptide (SEQ ID NO: 535)]
EC50 (GLP-1 receptor [1]): 0.0168 nM | EC50 (GLP-1 receptor [2]): 0.044 nM

H[Aib]QGTFTSDK(Palmitoyl)SKYLD[Aib]RRAQDFVQWLMNT-NH2 [Peptide 50 (SEQ ID NO: 563)]
EC50 (glucagon receptor [14]): 0.052 nM | EC50 (20% human plasma) (glucagon receptor [14]): 0.023 nM | EC50 (glucagon receptor [15]): 0.572 nM

HXQGTFTSDYSKYLDEQAAKEFICWLMNGGPSSGAPPPSK (AIB at 2; Lys 40 acylated with a C14 fatty acyl group) [mt-345]
% Relative activity (glucagon receptor [16]): 193% | EC50 (glucagon receptor [16]): 0.0183 nM | % Relative activity (GLP-1 receptor [17]): 153% | % Relative activity (GIP receptor [18]): 4.99% | % Relative activity (glucagon receptor [19]): 193% | % Relative activity (GLP-1 receptor [20]): 153% | % Relative activity (GIP receptor [21]): 5%

H[Aib]QGTFTSDYSKYLDEQAAKEFIC([maleimide-PEG 40 kDa″])WLMNT (lactam 16-20) [Peptide Y-PEG]
% activity of native glucagon (glucagon receptor [22]): 8.22% | EC50 (cAMP, CRE-luciferase) (glucagon receptor [22]): 0.667 nM | % activity of native GLP-1 (GLP-1 receptor [23]): 47.6% | EC50 (cAMP, CRE-luciferase) (GLP-1 receptor [23]): 0.059 nM

HXQGTFTSDKSKYLDERRAKDFVQWLMNT (d-Ser at 2; Lys 10 acylated with C16; C-terminal amide) [Peptide dS2K10(C16)E16K20-Gluc Amide]
EC50 (glucagon receptor [12]): 0.076 nM | EC50 (GLP-1 receptor [13]): 0.041 nM

B3: Peptide 78** (SEQ ID NO: 617) (peptide)
peptide: H[Aib]QGTFTSDK([γGlu-γGlu-Myristoyl])SKYLD[Aib]RRAQDFVCWLMNT-NH2
modifications: N-terminus assumed
SMILES: CCCCCCCCCCCCCC(=O)N[C@@H](CCC(=O)N[C@@H](CCC(=O)NCCCC[C@H](NC(=O)[C@H](CC(=O)O)NC(=O)[C@H](CO)NC(=O)[C@@H](NC(=O)[C@H](Cc1ccccc1)NC(=O)[C@@H](NC(=O)CNC(=O)[C@H](CCC(N)=O)NC(=O)C(C)(C)NC(=O)[C@@H](N)Cc1c[nH]cn1)[C@@H](C)O)[C@@H](C)O)C(=O)N[C@@H](CO)C(=O)N[C@@H](CCCCN)C(=O)N[C@@H](Cc1ccc(O)cc1)C(=O)N[C@@H](CC(C)C)C(=O)N[C@@H](CC(=O)O)C(=O)NC(C)(C)C(=O)N[C@@H](CCCNC(=N)N)C(=O)N[C@@H](CCCNC(=N)N)C(=O)N[C@@H](C)C(=O)N[C@@H](CCC(N)=O)C(=O)N[C@@H](CC(=O)O)C(=O)N[C@@H](Cc1ccccc1)C(=O)N[C@H](C(=O)N[C@@H](CS)C(=O)N[C@@H](Cc1c[nH]c2ccccc12)C(=O)N[C@@H](CC(C)C)C(=O)N[C@@H](CCSC)C(=O)N[C@@H](CC(N)=O)C(=O)N[C@H](C(N)=O)[C@@H](C)O)C(C)C)C(=O)O)C(=O)O
EC50 (glucagon receptor [5]): 0.009 nM | EC50 (GLP-1 receptor [6]): 0.008 nM

H[Aib]QGTFTSDK([Trp-Palmitoyl])SKYLD[Aib]RRAQDFVC(PEG 40 kDa)WLMNT-NH2 [Glucagon (1-29a) Aib2 Lys10-Trp-C16 Aib16 Cys24-40 kD]
EC50 (glucagon receptor [24]): 0.29 nM

H[Aib]QGTFTSDYSKYLDEQAAKEFICWLMNT [Peptide X]
% activity of native glucagon (glucagon receptor [22]): 9.38% | % activity of native GLP-1 (GLP-1 receptor [23]): 202%

HS[Orn]GTFTSDYSKYLDERRAQDFVQWLMNT-NH2 [Orn3, E16 Gluc-NH2]
Percent Potency Relative to Native Ligand (GLP-1 receptor [11]): 0.1%

H[Aib]QGTFTSDKSKYLDEQAAKEFIC(PEG 40 kDa)WLMNT-NH2 [Non-acylated Glucagon analog peptide (SEQ ID NO: 580)]
EC50 (GLP-1 receptor [2]): 0.095 nM
